From PMC7397871

Molecular target: T1, ZC3H12B PIN + C3H1 crystallization construct (Homo sapiens, UniProt Q5HYM0 179-380)
T1 sequence: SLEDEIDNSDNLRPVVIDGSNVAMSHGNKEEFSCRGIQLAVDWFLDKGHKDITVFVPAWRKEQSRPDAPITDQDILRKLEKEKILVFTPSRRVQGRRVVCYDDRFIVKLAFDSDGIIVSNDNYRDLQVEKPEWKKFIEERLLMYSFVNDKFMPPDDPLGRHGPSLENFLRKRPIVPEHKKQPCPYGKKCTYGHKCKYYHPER
Assay: X-ray crystallography

B1: 21-nt HTR-SELEX-enriched RNA (ssRNA)
RNA: AAUGCGACAGUCGGUAGCAUC
modifications: phosphorothioate between nt 1 and 2 (5' end)
**Q.** Does B1 bind?
**A.** Result: binds
